Laboratory results: US20240116985A1 (published 2024)
Starred links: 1 amine or outer side, 2 acyl side, 3 side chain; linkers in the order of their positions; H or OH if unused. Positions of bridges follow the written chain, without caps; N, C: chain ends. Non-standard residues stand in square brackets, D forms with d. Primed or numbered codes have the meaning given here. *: point of attachment. PyrS2″ = (S)-3-amino-1-((pent-4-en-1-yloxy)carbonyl)pyrrolidine-3-carboxylic acid (stapling residue), C=CCCCOC(=O)N1CC[C@@](N[*:1])(C(=O)[*:2])C1; HypBzEs3OAllyl = (2R,4S)-4-((3-(allyloxy)benzoyl)oxy)pyrrolidine-2-carboxylic acid, C=CCOc1cccc(C(=O)O[C@H]2C[C@H](C(=O)[*:2])N([*:1])C2)c1; B5(4) = 2,2-bis(4-pentenyl)glycine = 2-amino-2-(pent-4-en-1-yl)hept-6-enoic acid (stitching residue), C=CCCCC(CCCC=C)(N[*:1])C(=O)[*:2]; (Me2NPrPip)GlnR″ = Glu side chain amide with 4-(3-(dimethylamino)propyl)piperazine, CN(C)CCCN1CCN(C(=O)CC[C@H](N[*:1])C(=O)[*:2])CC1; TfeGA = (S)-2-amino-3-((carboxymethyl)(2,2,2-trifluoroethyl)amino)propanoic acid, O=C([C@H](CN(CC(=O)[*:3])CC(F)(F)F)N[*:1])[*:2]; PyrS2 = (S)-3-amino-1-((pent-4-en-1-yloxy)carbonyl)pyrrolidine-3-carboxylic acid, C=CCCCOC(=O)N1CC[C@@](N[*:1])(C(=O)[*:2])C1; (2OxoPpz)GlnR = Glu side chain amide with 2-oxopiperazine (3-oxopiperazin-1-yl), O=C1CN(C(=O)CC[C@H](N[*:1])C(=O)[*:2])CCN1; (EtSO2Ppz)GlnR = Glu side chain amide with 4-(ethylsulfonyl)piperazine, CCS(=O)(=O)N1CCN(C(=O)CC[C@H](N[*:1])C(=O)[*:2])CC1; (bismethoxyethylamine)GlnR″ = N5,N5-bis(2-methoxyethyl)-L-glutamine, COCCN(CCOC)C(=O)CC[C@H](N[*:1])C(=O)[*:2]; B5(3) = 2,2-bis(4-pentenyl)glycine (stitching residue), C=CCCCC(CCCC=C)(N[*:1])C(=O)[*:2]; B5(28) = 2,2-bis(4-pentenyl)glycine, C=CCCCC(CCCC=C)(N[*:1])C(=O)[*:2]; Phe(3-COOH) = N[C@@H](Cc1cccc(C(=O)O)c1)C(=O)O; 2F3MeF = Cc1cccc(C[C@H](N[*:1])C(=O)[*:2])c1F; Phe(2-Cl) = N[C@@H](Cc1ccccc1Cl)C(=O)O; Bta = N[C@@H](Cc1csc2ccccc12)C(=O)O; αAllylPro = C=CC[C@@]1(C(=O)O)CCCN1; isoindolineGlnR = not defined here; tBuAla = CC(C)(C)C[C@H](N)C(=O)O; 3Thi = N[C@@H](Cc1ccsc1)C(=O)O; PyrS2(4) = not defined here; 2F3MeF(3) = Phe analogue; Abu = CC[C@H](N)C(=O)O; Aib = CC(C)(N)C(=O)O; Moc = COC(=O)*

molecular target: T1, Bcat-Halo (UniProt P35222 1-781); assay: cell-based or functional assay
T1 sequence (looked up): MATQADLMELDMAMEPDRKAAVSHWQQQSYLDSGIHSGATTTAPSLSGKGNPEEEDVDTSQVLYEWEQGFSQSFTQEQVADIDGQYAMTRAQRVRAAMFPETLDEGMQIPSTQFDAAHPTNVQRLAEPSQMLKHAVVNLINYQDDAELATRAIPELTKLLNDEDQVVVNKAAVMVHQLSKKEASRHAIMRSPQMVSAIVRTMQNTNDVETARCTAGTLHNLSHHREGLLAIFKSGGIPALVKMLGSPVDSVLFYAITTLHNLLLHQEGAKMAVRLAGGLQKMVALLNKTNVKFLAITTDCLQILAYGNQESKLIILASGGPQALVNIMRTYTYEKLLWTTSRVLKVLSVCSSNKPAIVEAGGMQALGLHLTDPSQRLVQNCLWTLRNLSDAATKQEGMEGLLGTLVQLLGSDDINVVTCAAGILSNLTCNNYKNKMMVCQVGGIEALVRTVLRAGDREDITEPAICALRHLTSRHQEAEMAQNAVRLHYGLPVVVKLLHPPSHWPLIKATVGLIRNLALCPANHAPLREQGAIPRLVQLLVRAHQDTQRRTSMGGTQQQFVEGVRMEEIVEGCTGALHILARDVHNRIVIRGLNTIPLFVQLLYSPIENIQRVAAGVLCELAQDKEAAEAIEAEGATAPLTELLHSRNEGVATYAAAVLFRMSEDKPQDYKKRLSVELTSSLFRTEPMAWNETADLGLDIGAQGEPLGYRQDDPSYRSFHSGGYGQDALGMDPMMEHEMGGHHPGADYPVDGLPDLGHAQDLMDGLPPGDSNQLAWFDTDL

| Binder | NanoBRET Abs IC50 [nM] |
| --- | --- |
| Ac-[αAllylPro]D[tBuAla][B5(4)]D[Phe(3-COOH)][(Me2NPrPip)GlnR″]AFL[PyrS2″][2F3MeF][Bta]A-NH2 (staple 1-4, 4-11) [I-2323] | 17700 |
| Ac-[αAllylPro]D[tBuAla][B5(4)]D[Phe(3-COOH)][(EtSO2Ppz)GlnR]AFL[PyrS2″][2F3MeF][Bta]A-NH2 (staple 1-4, 4-11) [I-2321] | 1700 |
| Ac-[αAllylPro]D[tBuAla][B5(4)]D[Phe(3-COOH)][(TfePpz)GlnR]AFL[PyrS2(4)][2F3MeF][Bta]A-NH2 (staple 1-4, 4-11; reading uncertain; also: printed as Ac-PL3-Asp-Npg-B5-Asp-3COOHF-[TfePpz]GlnR-Ala-Phe-Leu-PyrS2-2F3MeF-BztA-Ala-NH2) [I-2316] | 1600 |
| Ac-[HypBzEs3OAllyl]D[tBuAla][B5(3)]D[TfeGA]AAFL[PyrS2″][3Thi][Bta]Q-NH2 (staple 1-4, 4-11; also: staple -CH=CH- reduced to -CH2-CH2-) [I-2328] | > 20000 |
| Ac-[αAllylPro]D[tBuAla][B5(4)]D[Phe(3-COOH)][(4Pippip)GlnR]AFL[PyrS2″][2F3MeF][Bta]A-NH2 (staple 1-4, 4-11) [I-2317] | 18800 |
| Ac-[αAllylPro]D[tBuAla][B5(3)]N[Phe(3-COOH)]AAFN[PyrS2″][3Thi][Bta]Q-NH2 (staple 1-4, 4-11) [I-2335] | 37000 |
| Ac-[αAllylPro]D[tBuAla][B5(28)]D[Phe(3-COOH)][isoindolineGlnR]AFL[PyrS2][2F3MeF][Bta]A-NH2 (staple 1-4, 4-11; reading uncertain) [I-2320] | 2700 |
| Ac-[αAllylPro]D[tBuAla][B5(4)]D[Phe(3-COOH)][(2OxoPpz)GlnR]AFL[PyrS2″][2F3MeF][Bta]A-NH2 (staple 1-4, 4-11) [I-2318] | 1800 |
| Moc-[αAllylPro]D[tBuAla][B5(3)]D[Phe(3-COOH)]AAFL[PyrS2″][Phe(2-Cl)][Bta]A-NH2 (staple 1-4, 4-11) [I-2324] | 14800 |
| Ac-[αAllylPro]D[tBuAla][B5(4)]D[Phe(3-COOH)][(bismethoxyethylamine)GlnR″]AFL[PyrS2″][2F3MeF][Bta]A-NH2 (staple 1-4, 4-11) [I-2322] | 1800 |

molecular target: T2, B-cat-Halo (beta-catenin HaloTag NanoBRET construct expressed in HEK293 cells) (UniProt P35222 1-781); assay: cell-based or functional assay
T2 sequence (looked up): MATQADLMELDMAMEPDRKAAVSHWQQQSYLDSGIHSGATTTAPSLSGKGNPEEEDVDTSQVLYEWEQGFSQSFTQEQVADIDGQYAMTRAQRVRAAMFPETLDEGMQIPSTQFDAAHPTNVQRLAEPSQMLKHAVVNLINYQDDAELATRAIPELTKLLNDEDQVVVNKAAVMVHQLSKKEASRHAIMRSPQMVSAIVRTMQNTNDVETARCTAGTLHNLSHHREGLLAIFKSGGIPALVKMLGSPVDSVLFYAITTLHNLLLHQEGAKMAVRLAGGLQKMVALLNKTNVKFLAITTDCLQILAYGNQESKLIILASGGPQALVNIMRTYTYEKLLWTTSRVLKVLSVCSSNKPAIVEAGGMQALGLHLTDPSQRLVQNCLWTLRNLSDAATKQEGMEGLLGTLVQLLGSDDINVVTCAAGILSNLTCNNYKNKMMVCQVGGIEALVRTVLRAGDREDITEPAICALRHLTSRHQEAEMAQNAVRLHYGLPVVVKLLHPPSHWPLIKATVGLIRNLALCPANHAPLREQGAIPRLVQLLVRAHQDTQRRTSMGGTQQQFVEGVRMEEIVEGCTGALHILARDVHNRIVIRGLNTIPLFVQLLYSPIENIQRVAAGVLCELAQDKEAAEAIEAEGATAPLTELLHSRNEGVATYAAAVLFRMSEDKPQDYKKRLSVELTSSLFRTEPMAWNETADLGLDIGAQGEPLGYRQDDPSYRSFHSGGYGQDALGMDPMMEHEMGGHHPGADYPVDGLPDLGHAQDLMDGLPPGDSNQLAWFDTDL

| Binder | NanoBRET Abs IC50 [nM] |
| --- | --- |
| Ac-[αAllylPro]D[tBuAla][B5(3)]D[Phe(3-COOH)]AAF[Abu][PyrS2″][2F3MeF][Bta][(NHEt)GlnR]A-NH2 (staple 1-4, 4-11) [Ac-PL3-Asp-Npg-B5-Asp-3COOHF-Ala-Ala-Phe-Abu-PyrS2-2F3MeF-BztA-[NHEt]GlnR-Ala-NH2] | 1800 |
| Ac-[αAllylPro]D[tBuAla][B5(3)]D[Phe(3-COOH)]QAFL[PyrS2″][2F3MeF(3)][SbMe2NapA]A-NH2 (staple 1-4, 4-11) [Ac-PL3-Asp-Npg-B5-Asp-3COOHF-Gln-Ala-Phe-Leu-PyrS2-2F3MeF-SbMe2NapA-Ala-NH2] | > 20000 |
| Ac-[αAllylPro]D[tBuAla][B5(3)]NT[Aib]AFN[PyrS2″][3Thi][Bta]K-NH2 (staple 1-4, 4-11) [Ac-PL3-Asp-Npg-B5-Asn-Thr-Aib-Ala-Phe-Asn-PyrS2-3Thi-BztA-Lys-NH2] | > 20000 |
| Ac-[αAllylPro]D[tBuAla][B5(3)]D[TfeGA]AAFL[PyrS2″][3Thi][Bta][(NHEt)GlnR]A-NH2 (staple 1-4, 4-11) [Ac-PL3-Asp-Npg-B5-Asp-TfeGA-Ala-Ala-Phe-Leu-PyrS2-3Thi-BztA-[NHEt]GlnR-Ala-NH2] | 2100 |
| Ac-[αAllylPro]D[tBuAla][B5(3)]NT[Aib]AFN[PyrS2″][3Thi][Bta]Y-NH2 (staple 1-4, 4-11) [Ac-PL3-Asp-Npg-B5-Asn-Thr-Aib-Ala-Phe-Asn-PyrS2-3Thi-BztA-Tyr-NH2] | > 20000 |
